Tests used:
HSA WT, soluble = molecular target: T1, HSA WT, soluble (human, UniProt P02768 25-609); test: SPR, FcRn over immobilised HSA, pH 6.0
T1 construct: also called wild-type HSA; recombinant wild-type HSA

HSA [G572R], soluble = HSA [G572R], soluble (human, UniProt P02768 25-609); test: SPR, FcRn over immobilised HSA, pH 6.0
[1] = molecular target: HSA [Q522L/A552V], soluble (human, UniProt P02768 25-609); test: SPR, FcRn over immobilised HSA, pH 6.0
HSA [K573Y], soluble [2] = molecular target: T2, HSA [K573Y], soluble (human, UniProt P02768 25-609); test: SPR, FcRn over immobilised HSA, pH 6.0, 1:1 model; pH 6.0
Experimental: (§1) Spot 3 of each flow cell was activated/deactivated and used for reference subtraction. The flow rate of FcRn/β2m was kept constant at 30 μL/min
(§2) A concentration range of 2 to 0.007 μM (pH6.0) and 20 to 0.078 μM (pH7.3) was used and association and dissociation phases were monitored for 180 and 600 seconds respectively.
(§3) Regeneration of the surface was performed as previously described.

[3] = molecular target: T3, HSA [A552V/G572R], soluble (human, UniProt P02768 25-609); test: as above
T3 construct: also called A522V/G572R
Experimental: as §1, §2, §3

[4] = molecular target: T4, HSA [Q522L/G572R], soluble (human, UniProt P02768 25-609); test: as above
Experimental: as §1, §2, §3

[5] = molecular target: T5, human neonatal Fc receptor FcRn/β2m, soluble recombinant (human, UniProt P55899 24-297; P61769 21-119, alexa-488 label (Examples 2-4); minimal chemical biotinylation with Sulfo-NHS-LC-LC-Biotin (Examples 5-6)); test: flow cytometry, labelled FcRn on CHO-displayed HSA, pH 5.4
T5 construct: Heterodimer; extracellular domain is inferred; also called hFcRn/β2M; hsFcRn
Text: (§4) Background fluorescence due to non-specific binding of the labelled FcRn to the cells was subtracted from the value obtained.

[6] = molecular target: T5, human neonatal Fc receptor FcRn/β2m, …; test: flow cytometry, labelled FcRn on CHO-displayed HSA, pH 7.3
Text: as §4

HSA [K573Y], soluble [7] = molecular target: T2, HSA [K573Y], soluble; test: SPR, FcRn over immobilised HSA, pH 6.0
[8] = molecular target: T3, HSA [A552V/G572R], soluble; test: SPR, FcRn over immobilised HSA, pH 6.0
[9] = molecular target: T4, HSA [Q522L/G572R], soluble; test: SPR, FcRn over immobilised HSA, pH 6.0

binding result (HSA WT, soluble) | binding result (HSA [G572R], soluble) | binding result [1] | Kd (HSA [K573Y], soluble [2]) | Kd [3] | Kd [4] | fold change to WT [5] | geoMFI [5] | fold change to WT [6] | geoMFI [6] | binding result (HSA [K573Y], soluble [7]) | binding result [8] | binding result [9] | Binder
no binding (tested: 2 µM) | no binding (tested: 2 µM) | no binding (tested: 2 µM) | 0.989 µM | 4.82 µM | 4.75 µM | – | – | – | – | – | – | – | rat FcRn/β2m, soluble recombinant (receptor, Extracellular domain inferred from 'soluble') AEPRLPLMYHLAAVSDLSTGLPSFWATGWLGAQQYLTYNNLRQEADPCGAWIWENQVSWYWEKETTDLKSKEQLFLEAIRTLENQINGTFTLQGLLGCELAPDNSSLPTAVFALNGEEFMRFNPRTGNWSGEWPETDIVGNLWMKQPEAARKESEFLLTSCPERLLGHLERGRQNLEWKEPPSMRLKARPGNSGSSVLTCAAFSFYPPELKFRFLRNGLASGSGNCSTGPNGDGSFHAWSLLEVKRGDEHHYQCQVEHEGLAQPLTVDLDSPARSS b2m: IQKTPQIQVYSRHPPENGKPNFLNCYVSQFHPPQIEIELLKNGKKIPNIEMSDLSFSKDWSFYILAHTEFTPTETDVYACRVKHVTLKEPKTVTWDRDM
– | – | – | – | – | – | 20.8 fold | 34800 | 1.8 fold | 28.8 | – | – | – | HSA [K317E/M329V/K372E/F377I/I388T/A552V/G572R] (clone 3.9), membrane-tethered on CHO cells (other, not shown: Myc tag and PDGFR transmembrane domain) DAHKSEVAHRFKDLGEENFKALVLIAFAQYLQQCPFEDHVKLVNEVTEFAKTCVADESAENCDKSLHTLFGDKLCTVATLRETYGEMADCCAKQEPERNECFLQHKDDNPNLPRLVRPEVDVMCTAFHDNEETFLKKYLYEIARRHPYFYAPELLFFAKRYKAAFTECCQAADKAACLLPKLDELRDEGKASSAKQRLKCASLQKFGERAFKAWAVARLSQRFPKAEFAEVSKLVTDLTKVHTECCHGDLLECADDRADLAKYICENQDSISSKLKECCEKPLLEKSHCIAEVENDEMPADLPSLAADFVESKDVCENYAEAKDVFLGVFLYEYARRHPDYSVVLLLRLAKTYETTLEKCCAAADPHECYAEVFDEIKPLVEEPQNLTKQNCELFEQLGEYKFQNALLVRYTKKVPQVSTPTLVEVSRNLGKVGSKCCKHPEAKRMPCAEDYLSVVLNQLCVLHEKTPVSDRVTKCCTESLVNRRPCFSALEVDETYVPKEFNAETFTFHADICTLSEKERQIKKQTALVELVKHKPKATKEQLKAVMDDFVAFVEKCCKADDKETCFAEERKKLVAASQAALGL
– | no binding (tested: 2 µM) | no binding (tested: 2 µM) | – | – | – | – | – | – | – | no binding (tested: 2 µM) | no binding (tested: 2 µM) | no binding (tested: 2 µM) | mouse FcRn/β2m, soluble recombinant (receptor, Extracellular domain inferred from 'soluble'; also called murineFcRn; murine FcRn/β2m) SETRPPLMYHLTAVSNPSTGLPSFWATGWLGPQQYLTYNSLRQEADPCGAWMWENQVSWYWEKETTDLKSKEQLFLEALKTLEKILNGTYTLQGLLGCELASDNSSVPTAVFALNGEEFMKFNPRIGNWTGEWPETEIVANLWMKQPDAARKESEFLLNSCPERLLGHLERGRRNLEWKEPPSMRLKARPGNSGSSVLTCAAFSFYPPELKFRFLRNGLASGSGNCSTGPNGDGSFHAWSLLEVKRGDEHHYQCQVEHEGLAQPLTVDLDSSARSS b2m: IQKTPQIQVYSRHPPENGKPNILNCYVTQFHPPHIEIQMLKNGKKIPKVEMSDMSFSKDWSFYILAHTEFTPTETDTYACRVKHASMAEPKTVYWDRDM

— patent US20200325209A1 (CSL, published 2020)
